This is an account of results in patent publication US20170029530A1 (AbbVie / Abbott, published 2017).

For one assay, the target named is T1, hDPEP3-ECD-His (human, UniProt Q9H4B8 36-463).
T1 construct: also called hDPEP3-His; monomeric hDPEP3-His antigen; not shown: histidine tag
T1 sequence: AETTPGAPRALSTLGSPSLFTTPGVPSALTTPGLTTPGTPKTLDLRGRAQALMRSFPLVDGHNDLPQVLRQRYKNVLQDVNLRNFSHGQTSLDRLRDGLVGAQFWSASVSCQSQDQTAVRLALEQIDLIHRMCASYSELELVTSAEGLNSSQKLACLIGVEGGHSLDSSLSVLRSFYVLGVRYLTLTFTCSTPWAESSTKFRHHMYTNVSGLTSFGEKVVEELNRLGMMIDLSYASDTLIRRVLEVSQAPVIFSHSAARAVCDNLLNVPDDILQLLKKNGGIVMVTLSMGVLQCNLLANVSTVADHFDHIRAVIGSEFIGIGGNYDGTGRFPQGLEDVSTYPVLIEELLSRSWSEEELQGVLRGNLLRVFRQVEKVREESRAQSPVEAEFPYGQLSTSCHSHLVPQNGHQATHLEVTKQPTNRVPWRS
The assay is described as follows: BLI ForteBio RED, 200 nM hDPEP3-His, estimated grade. The procedure:
The affinity of the antibodies for hDPEP3-His was qualitatively determined from kinetics curves generated with a ForteBio RED as follows. Anti-DPEP3 antibodies were immobilized onto anti-mouse Fc capture biosensors with a contact time of 3 mins. and a flow rate of 1000 rpm. The captured antibody loading from baseline was constant at 0.3-1 units. Following antibody capture and 30 second baseline, the biosensors were dipped into a 200 nM solution of hDPEP3-His for a 4 min. association phase followed by a 3 min. dissociation phase at a shaking rate of 1000 rpm. The biosensors were regenerated by dipping into 10 mM glycine, pH 1.7 following each cycle. The data was processed by subtracting a control mouse IgG surface response from the specific antibody response and data was truncated to the association and dissociation phase. The association and dissociation curves were used to qualitatively estimate the affinities of selected antibodies. […] A designation of “ND” means that the estimated KD was not determined.

In the next assay the target is T2, cDPEP3 (Macaca fascicularis, UniProt Q4R7M2).
T2 construct: extracellular domain; also called cynomolgus DPEP3-His; cynomolgus DPEP3 ECD with histidine tag
T2 sequence (single chain, looked up): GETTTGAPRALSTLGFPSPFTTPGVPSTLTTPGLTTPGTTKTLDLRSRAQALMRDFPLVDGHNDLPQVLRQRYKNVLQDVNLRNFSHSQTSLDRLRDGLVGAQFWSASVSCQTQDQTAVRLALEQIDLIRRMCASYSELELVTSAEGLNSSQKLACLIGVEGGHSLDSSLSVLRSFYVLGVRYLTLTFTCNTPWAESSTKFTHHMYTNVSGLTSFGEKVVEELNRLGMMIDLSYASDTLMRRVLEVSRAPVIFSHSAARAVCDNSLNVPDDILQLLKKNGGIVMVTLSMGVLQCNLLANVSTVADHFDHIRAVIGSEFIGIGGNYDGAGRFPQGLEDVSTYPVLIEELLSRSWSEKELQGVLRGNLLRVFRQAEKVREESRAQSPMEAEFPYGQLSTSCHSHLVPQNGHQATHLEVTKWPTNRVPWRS
Kind of assay: ELISA, coated antigen. The procedure: (§1) The anti-DPEP3 antibodies were screened by ELISA for cross-reactivity with mouse, rat and cynomolgus DPEP3 and for cross reactivity to hDPEP2, the closest DPEP3 family member. ELISA was conducted as follows. Plates were coated with purified mouse, rat or cynomolgus DPEP3-His or hDPEP2-His at 0.3 μg/mL in 0.2 M carbonate-bicarbonate buffer, pH 9.4 overnight at 4° C. The protein solution was removed and the wells were blocked with 1% (w/v) BSA in PBS (PBSA), 100 μL/well for 1 hour at 37° C. Anti-DPEP3 antibody or a mouse isotype control antibody was then added at 1 μg/mL in 50 μL PBSA for 1 hour at room temperature. After washing with water, 50 μL/well HRP-labeled goat anti-mouse IgG antibody diluted 1:10,000 in PBSA was added for 30 min at room temperature. The plates were washed and developed by the addition of 40 μL/well of the TMB substrate solution (Thermo Scientific) at room temperature. An equal volume of 0.2 M H₂SO₄ was added to stop substrate development. The samples were then analyzed by spectrophotometer at OD 450. […] The cross reactivity results for exemplary DPEP3-specific antibodies can be seen in FIG. 4.
Background: ELISA stands for enzyme-linked immunosorbent assay.

Assay [1] has as its target T3, rat DPEP3 ECD with histidine tag (rat, UniProt Q5U2X4 36-459, limits assumed).
T3 construct: also called rDPEP3-His; ratDPEP3-His; not shown: histidine tag
T3 sequence: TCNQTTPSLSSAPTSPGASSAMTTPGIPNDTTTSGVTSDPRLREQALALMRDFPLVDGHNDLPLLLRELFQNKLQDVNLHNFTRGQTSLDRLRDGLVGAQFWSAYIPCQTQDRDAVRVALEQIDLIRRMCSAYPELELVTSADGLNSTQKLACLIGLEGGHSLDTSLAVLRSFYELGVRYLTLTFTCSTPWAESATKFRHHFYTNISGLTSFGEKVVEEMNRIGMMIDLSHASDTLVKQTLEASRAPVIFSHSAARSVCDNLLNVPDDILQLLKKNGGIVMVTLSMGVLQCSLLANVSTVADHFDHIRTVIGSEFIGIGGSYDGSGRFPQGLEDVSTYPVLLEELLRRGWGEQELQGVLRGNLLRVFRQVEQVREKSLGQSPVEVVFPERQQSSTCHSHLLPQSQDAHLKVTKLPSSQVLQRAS
The assay is described as follows: ELISA, coated antigen. How it is done:
as §1

For the next assay, the target named is T4, mDPEP3 (limits assumed).
T4 construct: also called mouse DPEP3-His; mouse DPEP3 ECD with histidine tag
T4 single chain: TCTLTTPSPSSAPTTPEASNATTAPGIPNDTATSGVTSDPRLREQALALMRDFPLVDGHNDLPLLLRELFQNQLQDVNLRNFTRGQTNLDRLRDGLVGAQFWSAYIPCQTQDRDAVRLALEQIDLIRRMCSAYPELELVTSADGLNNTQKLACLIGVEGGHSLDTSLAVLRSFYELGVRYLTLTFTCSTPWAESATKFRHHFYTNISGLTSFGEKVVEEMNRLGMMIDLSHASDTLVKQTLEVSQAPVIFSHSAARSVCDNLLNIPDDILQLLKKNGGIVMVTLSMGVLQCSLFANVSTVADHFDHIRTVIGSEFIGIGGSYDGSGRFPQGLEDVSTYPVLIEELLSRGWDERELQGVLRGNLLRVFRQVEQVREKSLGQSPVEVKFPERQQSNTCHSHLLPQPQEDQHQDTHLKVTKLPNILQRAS
Kind of assay: ELISA, coated antigen. The procedure:
as §1

Assay [2] addresses T5, hDPEP2 ECD with histidine tag (human, UniProt Q9H4A9 33-463).
T5 construct: also called hDPEP2-His; not shown: histidine tag
The assay is described as follows: ELISA, coated antigen. The procedure:
as §1

For orientation: Kd means the concentration at which binding is half-saturated.

T5 sequence (Q9H4A9 33-463): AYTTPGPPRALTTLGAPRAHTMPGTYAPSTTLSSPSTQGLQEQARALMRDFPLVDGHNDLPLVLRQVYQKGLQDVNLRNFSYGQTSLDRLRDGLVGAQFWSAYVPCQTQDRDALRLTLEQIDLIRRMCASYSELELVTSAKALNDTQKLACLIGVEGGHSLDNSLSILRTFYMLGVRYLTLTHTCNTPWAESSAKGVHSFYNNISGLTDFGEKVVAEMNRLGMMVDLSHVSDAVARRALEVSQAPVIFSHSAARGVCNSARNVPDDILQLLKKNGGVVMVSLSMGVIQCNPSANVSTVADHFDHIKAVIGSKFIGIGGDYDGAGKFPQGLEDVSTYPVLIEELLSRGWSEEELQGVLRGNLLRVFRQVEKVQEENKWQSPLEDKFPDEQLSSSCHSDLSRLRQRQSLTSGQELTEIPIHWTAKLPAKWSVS

B1: SC34.39 (antibody, mouse IgG2a, V domains shown)
VH: QVQLQQSGAELMKPGASVKISCKATGYTFSNYWIEWVKQRPGHGLEWIGEILPGSDSTYFNEKFKGKATFTADTSSNTAYMQLSSLTSEDSAVYYCTIRSAAYYSNPEWFAYWGQGTLVTVSA
VL: QIVLTQSPAIMSASQGERVTMTCTASSSVSSNYLHWYQQKPGSSPKLWIYSTSHLASGVPVRFSGSGSGTSYSLTISSMEAEDAATYYCHQYHRSPYTFGGGTKLEIK
For B1, in the assay with hDPEP3-ECD-His, the Kd was less than 5 nM. Moreover, the binding result (with cDPEP3; in assay [1]; in the assay with mDPEP3; in assay [2]) was “no binding (tested: 1 ug/mL)” in each case.

B2: SC34.78 (antibody, mouse IgG1, V domains shown)
VH: DVQLQESGRGLVKPSQSLSLTCTVTGYSLTSDFAWNWIRQFPGNKLEWMGYIRYSGTTSYNPSLKSRISITRDTSKNQFFLQLNSVTTEDTATYYCGYGNYGYAMDYWGQGTSVTVSS
VL: DIMMTQSPATLSVTPGDRVSLSCRASQSIGAYLHWYQQKSHESPRLLIKYVSQSISGIPSRFSGSGSGSDFTLSINSVEPEDVGVYYCQNGHSFPLTFGAGTKLELK
B2: in the assay with hDPEP3-ECD-His, the Kd was greater than 10 nM. Also, the binding result (in the assay with cDPEP3; in assay [1]; with mDPEP3; in assay [2]) was “no binding (tested: 1 ug/mL)” in each case.

B3: SC34.5 (antibody, mouse IgG1, V domains shown)
VH: EVQLQQSGPELVKPGASMKISCKASGYSFTGYTMNWVKQSHGKNLEWIGLIYPYNDDTRYKQKFKGKATLTVDKSSSTAYMELLSLTSEDSAVYYCTRGYYGSPYFDVWGAGTTVTVSS
VL: DIVMTQFPSSLAMSVGQKVTMNCKSSQSLLNSSNQKNYLAWFQQKPGQSPKLLVYFASTRESGVPDRFLGSGSGTDFTLTISSVQAEDLADYFCQQHYSTPFTFGSGTKLEIK
notes: also called SC34.05
On to B3, for which the Kd in the assay with hDPEP3-ECD-His is less than 5 nM. For the same molecule, the binding result (with cDPEP3; in assay [1]; in the assay with mDPEP3; in assay [2]) was “no binding (tested: 1 ug/mL)” throughout.

B4: SC34.6 (antibody, mouse IgG1, V domains shown)
VH: EVQLQQSGPELVKPGTSMKISCKASGYSFTGYTMNWVKQSHGKNLEWIGLIYPYNDDTRYNRKFKGKATLTVDKSSNTAYMELLSLTSVDSAVCYCARGSYGSPFFDVWGAGTTVTVSS
VL: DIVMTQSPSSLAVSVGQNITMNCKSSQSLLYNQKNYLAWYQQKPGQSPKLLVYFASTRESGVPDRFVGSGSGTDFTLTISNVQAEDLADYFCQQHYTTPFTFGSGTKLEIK
notes: also called SC34.06
On to B4, for which the Kd with hDPEP3-ECD-His was less than 5 nM. Moreover, the binding result (with cDPEP3; in assay [1]; with mDPEP3; in assay [2]) was “no binding (tested: 1 ug/mL)” each time.

B5: SC34.14 (antibody, mouse IgG1, V domains shown)
VH: EVQLQQSGPEMVKPGASVKISCKASGYIFTDYYMHWVKQSHGESLDWIGRVNPKKGGTTYNQKFEGKAILTVDKSSSTAYMDLNSLTSEDSAVYYCAMGIYYSYDASFDYWGQGTTLTVSS
VL: DIQMTQAPASLSPSVGATVTITCRTSEHIYSYLAWYQQKQGKSPRLLVYNAKTLAEGVSSRFSGSGSGTQFSLQINSLQPEDFGNYYCQHHYDTPYTFGGGTKLEIK
As to B5, the Kd with hDPEP3-ECD-His was less than 5 nM. For the same molecule, the binding result (with cDPEP3; in assay [1]; in the assay with mDPEP3) was “no binding (tested: 1 ug/mL)” each time.

B6: SC34.48 (antibody, mouse IgG1, V domains shown)
VH: EVQLQQSGLEMVKPGASVKISCKASGYIFTDYYMHWVKQSHGKSLDWIGRVNPKKGGTTYNQKFEGKATLTVDKSSSTAYMDLNSLTSEDSAVYYCAMGIYFSYDASFDYWGQGTTLTVSS
VL: DIQMTQAPASLSASVGETVTITCRTSGHIYSYLAWYQQKQGKSPQLLVYNAKTLAEGVSSRFSGSGSGTQFSLKITSLQPEDFGDYYCQHHYDTPYTFGGGTKLEIK
For B6, the Kd in the assay with hDPEP3-ECD-His was less than 5 nM. In addition, the binding result (with cDPEP3; in assay [1]; in the assay with mDPEP3) was “no binding (tested: 1 ug/mL)” each time.

B7: SC34.71 (antibody, mouse IgG2a, V domains shown)
VH: QVSLKESGPGILQPSQTLSLTCSFFGFSLSTSSMGVGWIRQPSGKGLEWLANIWWDNNKYYNAALKSRLTISKDTSKNQVFLNIASVDTTDTATYYCARIESYYSNRAWFPYWGRGTLVTVSA
VL: DIVMTQSQKFMSTSVGDRVSITCKASQNVRTAVAWYQQKPGQSPKTLIYLASNRHTGVPDRFTGSGSGTDFTLTISYVQSEDLADYFCLQHLNYPWTFGGGTKLEIK
As for B7, the Kd in the assay with hDPEP3-ECD-His is less than 5 nM. Moreover, the binding result (in the assay with cDPEP3; in assay [1]; in the assay with mDPEP3; in assay [2]) was “no binding (tested: 1 ug/mL)” each time.
